Results from US10611798B2, “PAR1 and PAR2 c-tail peptides and peptide mimetics” (Hadasit Medical Research Services and Development Ltd., priority 2010, dated 2020).

How the values were obtained:
MDA-MB-435 cells = assay: Wound assay (cell migration) in MDA-MB-435 cell monolayer; type: cell-based, human; settings: MDA-MB-435 monolayer, 24 h, PAR1 activation; compared to control untreated cells; FIG. 9D
Protocol: In a parallel experiment, a wound assay for determining the rate of cell migration, showing the ability of the cells to fill in gaps in an MDA-MB-435 cell monolayer, was performed. MDA-MB-435 cell monolayer expressing endogenous Etk/Bmx was scratched to introduce an equal gap-area under the following conditions: control untreated cells, TFLLRNPNDK-activated or SiRNA-Etk/Bmx and TFLLRNPNDK-activated. […] Similar inhibition was obtained in the presence of the PAR1 antagonist, SCH 79797 (FIG. 9D, bottom panel), pointing to the important role of both PAR1 and Etk/Bmx in wound closure/migration of PAR1-activated MDA-MB-435 cells.

[1] = target: T1, association between Etk/Bmx and PAR1-C-tail (Homo sapiens, UniProt P51813); assay: Competition experiment: co-immunoprecipitation of HA-PAR1 and T7-tagged Etk/Bmx in MCF7 clones; type: cell-based; settings: 20 minutes after activation by thrombin or TFLLRN, IP anti-HA, blot anti-T7, FIG. 22
T1 construct: expressed in transfected cells
T1 sequence (P51813 1-675): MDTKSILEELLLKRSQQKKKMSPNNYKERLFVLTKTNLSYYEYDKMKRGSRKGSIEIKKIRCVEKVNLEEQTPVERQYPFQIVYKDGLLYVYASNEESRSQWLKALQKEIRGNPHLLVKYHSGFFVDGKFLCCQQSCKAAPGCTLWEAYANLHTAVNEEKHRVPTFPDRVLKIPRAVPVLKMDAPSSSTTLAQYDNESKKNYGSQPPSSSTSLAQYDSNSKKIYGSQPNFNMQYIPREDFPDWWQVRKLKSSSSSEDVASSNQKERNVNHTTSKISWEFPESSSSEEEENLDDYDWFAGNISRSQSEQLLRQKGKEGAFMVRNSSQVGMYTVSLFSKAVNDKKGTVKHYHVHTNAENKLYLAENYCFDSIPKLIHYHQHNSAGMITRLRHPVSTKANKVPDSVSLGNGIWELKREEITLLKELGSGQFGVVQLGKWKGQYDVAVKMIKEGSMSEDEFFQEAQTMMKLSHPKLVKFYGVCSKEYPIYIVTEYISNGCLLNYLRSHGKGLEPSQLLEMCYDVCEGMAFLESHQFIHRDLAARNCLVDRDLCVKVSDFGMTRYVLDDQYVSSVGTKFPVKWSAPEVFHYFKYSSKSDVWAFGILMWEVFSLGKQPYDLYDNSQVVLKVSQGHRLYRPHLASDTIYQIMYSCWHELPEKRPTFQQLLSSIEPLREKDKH
Protocol: Western blot and immunoprecipitation analysis: Cells were activated with agonist peptide TFLLRNPNDK (SEQ ID NO: 35) for the indicated periods of time and solubilized in lysis buffer containing 10 mM Tris-HCl, pH 7.4, 150 mM NaCl, 1 mM EDTA, 1% TritonX-100, and protease inhibitors ([…] aprotinin, 1 mM phenylmethylsulfonylfluoride, and […] leupeptin) at 4° C. for 30 min. The cell lysates were subjected to centrifugation at 12,000 rpm at 4° C. for 20 min. We used 400 μg of the supernatants with anti-PAR1 (ATAP, Santa Cruz, Calif. 1 μg), anti-HA (anti-HA sc-7392; Santa Cruz, Calif.), anti-Shc or Etk/Bmx antibodies (10 μg/ml). After overnight incubation, Protein A-Sepharose beads (Amersham Pharmacia Biotech, Buckinghamshire, UK) were added to the suspension (50 μl ), which was rotated at 4° C. for 1 h. The immunocomplexes were eluted and run electrophoretically on a 10% SDS-PAGE gel, followed by transfer to an Immobilon-P membrane (Millipore). Membranes were blocked and probed with 1 μg/ml amounts of the appropriate antibodies as follows: anti-PAR1 thrombin receptor mAb, (ATAP, from Santa Cruz, 1:1000); anti-Shc (BD, 1:2000); anti-Bmx (Transduction Laboratories, 1:1000) or anti-PY (Upstate 4G10, 1:2500), suspended in 3% BSA in 10 mM Tris-HCl, pH 7.5, 100 mM NaCl, and 0.5% Tween-20. […] Immunoreactive bands were detected by enhanced chemiluminescence (ECL). […]

[2] = target: T2, PAR1 binding to GST-PH-Etk/Bmx (Homo sapiens, UniProt P51813); assay: Peptide competition for binding of PAR1 cell lysates to GST-PH-Etk/Bmx; settings: 1-1000 nM applied peptide; Western blot, FIG. 7B/7C
T2 construct: made in house; host or cells: Escherichia coli (general statement on GST fusion proteins)
T2 sequence (P51813 4-111 limits assumed): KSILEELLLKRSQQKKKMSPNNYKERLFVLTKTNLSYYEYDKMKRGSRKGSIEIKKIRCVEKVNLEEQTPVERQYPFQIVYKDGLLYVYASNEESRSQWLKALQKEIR
Protocol: GST fusion protein columns. Fusion proteins were purified from transformed Escherichia coli bacteria that had been stimulated with isopropyl-β-D-thio-galactopyranoside (IPTG) at a concentration of […]. Bacteria were lysed according to published procedures, and then immobilized on glutathione Sepharose beads (Pharmacia). Briefly, MDA-MB-435 cell lysates were applied to GST-PAR1 C-tail or GST control columns. After 2 h binding periods to the designated protein/s cell lysates to the columns, a washing step was performed. The washes (×3) were carried out using a “wash buffer” including: 100 mM NaCL, 20 mM EDTA, 10 mM Tris, pH 8.0 and 1% Triton ×100. This step was performed in order to wash out all non-specific proteins, leaving the GST-PAR1-C-tail column firmly bound to targeted cell lysate proteins. Next, elution of bound proteins was performed via the addition of gel “sample buffer” and appropriate boiling. The samples were run electrophoretically on SDS-PAGE gels, followed by immunoblotting with the indicated antibodies and ECL detection.
GST-PH-Etk/Bmx. The PH domain in Etk/Bmx was bound to GST column as previously described (Chen R, et al. (2001) Nat Cell Biol. 3: 439-444). Purification of PAR1 C-tail fragments. PAR1 C-tail fragments were generated using a “thrombin cleavage capture kit” (Novagen, Madison, Wis.; Cat no. 69022-3). The enzyme used for the cleavage was biotinylated human thrombin. Briefly, the cleavage was performed according to the manufacturer instructions. Biotinylated thrombin was removed from the cleavage reaction using streptavidin agarose beads, and the cleaved peptides (e.g., wt PAR1-C-tail and Y38 1A C-tail) were isolated and loaded on a GST-Etk-PH column. After incubation for 4 h the purified fragments were applied onto the GST-PH-Etk/Bmx column and detected following gel separation and western blotting analysis using anti-PAR1 antibodies (ATAP, Santa Cruz, Calif. ).
Identification of PAR1-Etk/Bmx binding region: functional consequences. […]

competition for the binding of PAR1 cell lysates to GST-PH-Etk/Bmx [2]	Compound	closure of the wound / migration (MDA-MB-435 cells)	other results
	CC(C)c1ccc(Cn2ccc3c4c(N)nc(NC5CC5)nc4ccc32)cc1 [SCH79797]	attenuated wound closure	
	SSECQRYVYSIL (listed as Homo sapiens) [NH2-SSECQRYVYSIL-COOH]		association between Etk/Bmx and PAR1-C-tail in the presence of the peptide [1]: No binding is observed
	TFLLRNPNDK (listed as Homo sapiens)	Rapid closure of the wound	
dose-dependent inhibition	peptide 4: 18-amino-acid peptide encompassing residues 375-392 of PAR1 C-tail (SSECQRYVYSILCCKESS; UniProt P25116 375-392, looked up, fragment)		
did not compete	peptide 5: peptide representing PAR1 C-tail 387-400 (CCKESSDPSSYNSS; UniProt P25116 387-400, looked up, fragment)		
did not compete	residues 393-412: peptide representing PAR1 C-tail residues 393-412 (DPSSYNSSGQLMASKMDTCS; UniProt P25116 393-412, looked up, fragment)		
